Key:
Conditions in all cases: both partners purified
[1] = target: T1, protocadherin-15 EC1+2, wild type, His-tagged (mouse, UniProt Q99PJ1 27-259); test: SPR; Biacore T100, Ni-NTA chip, 6xHis pcdh15 immobilised, tag-free cdh23 0.25 to 30 μM injected, 25°C, SEC buffer; global kinetic fit with EVILFIT (distribution model)
T1 construct: Protocadherin-15 (PCDH15), mouse, N-terminal fragment EC1+2; pET21a, NdeI/XhoI; predicted molecular weight 27.5 kDa; Held on the Ni-NTA chip by its His tag in SPR; also called pcdh15; pcdh15(WT); not shown: His6, C-terminal, kept

[2] = target: T1, protocadherin-15 EC1+2, wild type, …; test: SPR; Biacore T100, Ni-NTA chip, 6xHis pcdh15 immobilised, tag-free cdh23 0.25 to 30 μM injected, 25°C, SEC buffer; KD from binding isotherms (Biacore T100 evaluation software)
[3] = target: T2, protocadherin-15 EC1+2 G16D, His-tagged (mouse, UniProt Q99PJ1 27-259, G16D); test: SPR; Biacore T100, Ni-NTA chip, 6xHis pcdh15 immobilised, tag-free cdh23 0.25 to 30 μM injected, 25°C, SEC buffer; global kinetic fit with EVILFIT (distribution model)
T2 construct: Protocadherin-15 (PCDH15), mouse, N-terminal fragment EC1+2; Mutant of m12 made with QuikChange; Held on the Ni-NTA chip by its His tag in SPR; also called pcdh15(G16D); not shown: His6, C-terminal, kept

[4] = target: T2, protocadherin-15 EC1+2 G16D, His-tagged; test: SPR; Biacore T100, Ni-NTA chip, 6xHis pcdh15 immobilised, tag-free cdh23 0.25 to 30 μM injected, 25°C, SEC buffer; KD from binding isotherms (Biacore T100 evaluation software)
[5] = target: T1, protocadherin-15 EC1+2, wild type, …; test: thermal scanning (thermal stability shift assay with SYPRO orange); pcdh15 fixed at 0.1 mg/mL (~4 μM), cdh23 0.1 to 0.5 mg/mL (~4 to 20 μM; cdh23:pcdh15 1:1 to 5:1); SEC buffer (20 mM Tris-HCl pH 7.5, 150 mM KCl, 50 mM NaCl, 2 mM CaCl2); 10 to 95°C in 0.2°C steps, 5 s equilibration; read-out: shift of the Tm of pcdh15 (ΔTm)
[6] = target: T2, protocadherin-15 EC1+2 G16D, His-tagged; test: as above
[7] = target: T3, protocadherin-15 EC1+2 Q165L, His-tagged (mouse, UniProt Q99PJ1 27-259, Q165L); test: as above
T3 construct: Protocadherin-15 (PCDH15), mouse, N-terminal fragment EC1+2; Mutant of m12 made with QuikChange; Held on the Ni-NTA chip by its His tag in SPR; also called pcdh15(Q165L); not shown: His6, C-terminal, kept

[8] = target: T4, protocadherin-15 EC1+2 I108N, His-tagged (mouse, UniProt Q99PJ1 27-259, I108N); test: as above
T4 construct: Protocadherin-15 (PCDH15), mouse, N-terminal fragment EC1+2; Deafness-related missense mutation put into the mouse fragment m12 with QuikChange; also called pcdh15(I108N)

[9] = target: T5, protocadherin-15 EC1+2 H91R, His-tagged (mouse, UniProt Q99PJ1 27-259, H91R); test: as above
T5 construct: Protocadherin-15 (PCDH15), mouse, N-terminal fragment EC1+2; Mutant of m12 made with QuikChange; also called pcdh15(H91R)

Binder	Kd [1] [µM]	koff [1] [s⁻¹]	kon [1] [M⁻¹ s⁻¹]	Kd [2] [µM]	ΔTm of pcdh15 at cdh23:pcdh15 1:1 [5] [°C]	ΔTm of pcdh15 at cdh23:pcdh15 2:1 [5] [°C]	ΔTm of pcdh15 at cdh23:pcdh15 3:1 [5] [°C]	ΔTm of pcdh15 at cdh23:pcdh15 4:1 [5] [°C]	ΔTm of pcdh15 at cdh23:pcdh15 5:1 [5] [°C]	also measured
cadherin-23 EC1+2 (residues 1-205) F7E, tagless (domain or fragment, mouse, an Ala residue included between CDH23 EC2 and the intein tag to improve cleavage efficiency; Mutant of m8; That the added Ala stays on the C-terminus after cleavage is surmised; also called cdh23(F7E)) QVNRLPEFTNHFFDTYLLISEDTPVGSSVTQLLARDMDNDPLVFGVSGEEASRFFAVEPDTGVVWLRQPLDRETKSEFTVEFSVSDHQGVITRKVNIQVGDVNDNAPTFHNQPYSVRIPENTPVGTPIFIVNATDPDLGAGGSVLYSFQPPSPFFAIDSARGIVTVIQELDYEVTQAYQLTVNATDQDKTRPLSTLANLAIIITDA	3.25 ± 0.25	0.22 ± 0.04	66000	1.58 ± 0.03	–	–	–	–	–	–
cadherin-23 EC1+2 (residues 1-205) T15E, tagless (domain or fragment, mouse, an Ala residue included between CDH23 EC2 and the intein tag to improve cleavage efficiency; Mutant of m8; That the added Ala stays on the C-terminus after cleavage is surmised; also called cdh23(T15E)) QVNRLPFFTNHFFDEYLLISEDTPVGSSVTQLLARDMDNDPLVFGVSGEEASRFFAVEPDTGVVWLRQPLDRETKSEFTVEFSVSDHQGVITRKVNIQVGDVNDNAPTFHNQPYSVRIPENTPVGTPIFIVNATDPDLGAGGSVLYSFQPPSPFFAIDSARGIVTVIQELDYEVTQAYQLTVNATDQDKTRPLSTLANLAIIITDA	2.05 ± 0.1	0.11 ± 0.01	55100	0.88 ± 0.06	–	–	–	–	–	Kd [3]: 1.42 ± 0.05 µM; koff [3]: 0.09 s⁻¹; kon [3]: 61400 M⁻¹ s⁻¹; Kd [4]: 0.62 ± 0.11 µM
cadherin-23 EC1+2 (residues 1-205) S76V, tagless (domain or fragment, mouse, an Ala residue included between CDH23 EC2 and the intein tag to improve cleavage efficiency; Mutant of m8; That the added Ala stays on the C-terminus after cleavage is surmised; also called cdh23(S76V)) QVNRLPFFTNHFFDTYLLISEDTPVGSSVTQLLARDMDNDPLVFGVSGEEASRFFAVEPDTGVVWLRQPLDRETKVEFTVEFSVSDHQGVITRKVNIQVGDVNDNAPTFHNQPYSVRIPENTPVGTPIFIVNATDPDLGAGGSVLYSFQPPSPFFAIDSARGIVTVIQELDYEVTQAYQLTVNATDQDKTRPLSTLANLAIIITDA	2.79 ± 0.88	0.18 ± 0.01	68800	1.16 ± 0.56	–	–	–	–	–	–
cadherin-23 EC1+2, wild type, His-tagged (domain or fragment, mouse, Cadherin-23 (CDH23), mouse, N-terminal fragment EC1+2; pET21a, NdeI/XhoI; predicted molecular weight 23.8 kDa; also called cdh23; cdh23(WT)) QVNRLPFFTNHFFDTYLLISEDTPVGSSVTQLLARDMDNDPLVFGVSGEEASRFFAVEPDTGVVWLRQPLDRETKSEFTVEFSVSDHQGVITRKVNIQVGDVNDNAPTFHNQPYSVRIPENTPVGTPIFIVNATDPDLGAGGSVLYSFQPPSPFFAIDSARGIVTVIQELDYEVTQAYQLTVNATDQDKTRPLSTLANLAIIITD	–	–	–	–	1.8 ± 0.8	3.2 ± 0.7	4.1 ± 0.8	5 ± 0.7	5.5 ± 0.8	ΔTm of pcdh15 at cdh23:pcdh15 1:1 [6]: 3 ± 0.5 °C; ΔTm of pcdh15 at cdh23:pcdh15 2:1 [6]: 4.5 ± 0.7 °C; ΔTm of pcdh15 at cdh23:pcdh15 3:1 [6]: 5.6 °C; ΔTm of pcdh15 at cdh23:pcdh15 4:1 [6]: 6.2 ± 0.1 °C; ΔTm of pcdh15 at cdh23:pcdh15 5:1 [6]: 6.8 ± 0.4 °C; ΔTm of pcdh15 at cdh23:pcdh15 1:1 [7]: 1.1 ± 0.4 °C; ΔTm of pcdh15 at cdh23:pcdh15 2:1 [7]: 1.7 ± 0.7 °C; ΔTm of pcdh15 at cdh23:pcdh15 3:1 [7]: 2.3 ± 0.6 °C; ΔTm of pcdh15 at cdh23:pcdh15 4:1 [7]: 2.7 ± 0.9 °C; ΔTm of pcdh15 at cdh23:pcdh15 5:1 [7]: 3.7 ± 1.1 °C; ΔTm of pcdh15 at cdh23:pcdh15 1:1 [8]: 0 °C; ΔTm of pcdh15 at cdh23:pcdh15 2:1 [8]: 0.2 ± 0.2 °C; ΔTm of pcdh15 at cdh23:pcdh15 3:1 [8]: 0.4 ± 0.1 °C; ΔTm of pcdh15 at cdh23:pcdh15 4:1 [8]: 0.4 ± 0.1 °C; ΔTm of pcdh15 at cdh23:pcdh15 5:1 [8]: 0.5 °C
cadherin-23 EC1+2 T79E, His-tagged (domain or fragment, mouse, Cadherin-23 (CDH23), mouse, N-terminal fragment EC1+2; Mutant of m1 made with QuikChange; also called cdh23(T79E)) QVNRLPFFTNHFFDTYLLISEDTPVGSSVTQLLARDMDNDPLVFGVSGEEASRFFAVEPDTGVVWLRQPLDRETKSEFEVEFSVSDHQGVITRKVNIQVGDVNDNAPTFHNQPYSVRIPENTPVGTPIFIVNATDPDLGAGGSVLYSFQPPSPFFAIDSARGIVTVIQELDYEVTQAYQLTVNATDQDKTRPLSTLANLAIIITD	–	–	–	–	–	–	–	–	–	ΔTm of pcdh15 at cdh23:pcdh15 1:1 [9]: 2.1 ± 0.4 °C; ΔTm of pcdh15 at cdh23:pcdh15 2:1 [9]: 4.1 ± 0.5 °C; ΔTm of pcdh15 at cdh23:pcdh15 3:1 [9]: 5.3 ± 1.8 °C; ΔTm of pcdh15 at cdh23:pcdh15 4:1 [9]: 6 ± 1.8 °C; ΔTm of pcdh15 at cdh23:pcdh15 5:1 [9]: 7.3 ± 1.3 °C
cadherin-23 EC1+2 S76V, His-tagged (domain or fragment, mouse, Cadherin-23 (CDH23), mouse, N-terminal fragment EC1+2; Mutant of m1 made with QuikChange; also called cdh23(S76V)) QVNRLPFFTNHFFDTYLLISEDTPVGSSVTQLLARDMDNDPLVFGVSGEEASRFFAVEPDTGVVWLRQPLDRETKVEFTVEFSVSDHQGVITRKVNIQVGDVNDNAPTFHNQPYSVRIPENTPVGTPIFIVNATDPDLGAGGSVLYSFQPPSPFFAIDSARGIVTVIQELDYEVTQAYQLTVNATDQDKTRPLSTLANLAIIITD	–	–	–	–	1.7 ± 1	3 ± 1.7	4 ± 1.5	5.1 ± 1.8	5.4 ± 1.9	–
cadherin-23 EC1+2 F7E, His-tagged (domain or fragment, mouse, Cadherin-23 (CDH23), mouse, N-terminal fragment EC1+2; Mutant of m1 made with QuikChange; also called cdh23(F7E)) QVNRLPEFTNHFFDTYLLISEDTPVGSSVTQLLARDMDNDPLVFGVSGEEASRFFAVEPDTGVVWLRQPLDRETKSEFTVEFSVSDHQGVITRKVNIQVGDVNDNAPTFHNQPYSVRIPENTPVGTPIFIVNATDPDLGAGGSVLYSFQPPSPFFAIDSARGIVTVIQELDYEVTQAYQLTVNATDQDKTRPLSTLANLAIIITD	–	–	–	–	1.7 ± 0.6	4.8 ± 0.6	5.5 ± 0.3	5.9 ± 0.2	7 ± 0.2	–
cadherin-23 EC1+2 T15E, His-tagged (domain or fragment, mouse, Cadherin-23 (CDH23), mouse, N-terminal fragment EC1+2; Mutant of m1 made with QuikChange; also called cdh23(T15E)) QVNRLPFFTNHFFDEYLLISEDTPVGSSVTQLLARDMDNDPLVFGVSGEEASRFFAVEPDTGVVWLRQPLDRETKSEFTVEFSVSDHQGVITRKVNIQVGDVNDNAPTFHNQPYSVRIPENTPVGTPIFIVNATDPDLGAGGSVLYSFQPPSPFFAIDSARGIVTVIQELDYEVTQAYQLTVNATDQDKTRPLSTLANLAIIITD	–	–	–	–	2.3 ± 0.4	3.9	4.8 ± 0.1	6 ± 0.5	6.7 ± 0.6	ΔTm of pcdh15 at cdh23:pcdh15 1:1 [6]: 2.4 ± 0.4 °C; ΔTm of pcdh15 at cdh23:pcdh15 2:1 [6]: 4.5 ± 0.8 °C; ΔTm of pcdh15 at cdh23:pcdh15 3:1 [6]: 5.5 ± 0.7 °C; ΔTm of pcdh15 at cdh23:pcdh15 4:1 [6]: 6.5 ± 1.2 °C; ΔTm of pcdh15 at cdh23:pcdh15 5:1 [6]: 7.2 ± 1.1 °C
